Laboratory results from paper PMC5538626, “Structural and functional analysis of the GABARAP interaction motif (GIM)” (EMBO Reports, 2017).

Target: LC3B (for ITC and NMR) (human), Q9GZQ8
Assay: ITC; peptide 0.4 mM titrated into 0.020 mM LC3/GABARAP protein in 26 steps, 25°C; 50 mM Na2HPO4, 100 mM NaCl, pH 7.0; one-site model

Binder	Ka [M⁻¹]	Kd [µM]	dH [kcal/mol]
PQQEDEAVNVQYPD (modifications not checked) [PLEKHM1‐LIR W635A peptide (ITC), Q9Y4G2 629-642]	10000	> 100	-0.8
PQQEDEWGNVQYPD (modifications not checked) [PLEKHM1‐LIR V636G peptide (ITC), Q9Y4G2 629-642]	10000	> 100	-1.7
